Two substances from article PMC9553925 can be followed below.

The target of test [1] is ATP synthase subunit-c (T. brucei) (T. brucei (endogenous in procyclic Lister strain 427)). The test can be described thus: cryo-EM structure; ATP synthase dimers purified from T. brucei procyclic mitochondria in GDN with added β-DDM and phospholipids, pH 8.0; consensus dimer 3.2 Å, membrane region 2.7 Å, peripheral stalk 3.7 Å, rotor 3.7 Å, ten rotational substates 3.5–4.3 Å.

Test [2] deals with Trypanosoma brucei mitochondrial F1Fo ATP synthase (monomer unit of the dimer) (T. brucei (endogenous in procyclic Lister strain 427)) (UniProt P24499). The description is as above.

Turning to “ATP synthase subunit-c (T. brucei) (natural protein)”, the stoichiometry N in test [1] worked out at 10.
Turning to “Trypanosoma brucei mitochondrial F1Fo ATP synthase (monomer unit of the dimer) (from UniProt P24499 1-229) (complex)”, the stoichiometry N in test [2] came out at 2.
